Results on seven molecules are retold here after article PMC4873976, “Structural basis for haem piracy from host haemopexin by Haemophilus influenzae” (Nature Communications, 2016).

Substitutions are numbered along the chain they refer to. A value given as a limit tells only on which side of the number the result lay.

In assay [1] the target is cysteine-less variant of HxuA^DEL (Haemophilus influenzae) (UniProt P44602). In words: ITC; haemopexin or its fragments (~100 μM) in the syringe, HxuA (~10 μM) in the cell; 20 mM Na-phosphate pH 7.0, 25 °C; single-site model; apparent Ka.
Assay [2] deals with T1, HxuA (cysteine-less variant, Cys855 and Cys861 replaced by serines; referred to as HxuA throughout) (Haemophilus influenzae, UniProt P44602 22-905, Cys855 replaced by serine | Cys861 replaced by serine).
T1 construct: also called WT; HxuAWT; source: E. coli BL21 with a pBAD24 derivative harbouring the hxuCBA operon; purified from the culture supernatant (ammonium sulfate, SEC, monoQ)
T1 sequence: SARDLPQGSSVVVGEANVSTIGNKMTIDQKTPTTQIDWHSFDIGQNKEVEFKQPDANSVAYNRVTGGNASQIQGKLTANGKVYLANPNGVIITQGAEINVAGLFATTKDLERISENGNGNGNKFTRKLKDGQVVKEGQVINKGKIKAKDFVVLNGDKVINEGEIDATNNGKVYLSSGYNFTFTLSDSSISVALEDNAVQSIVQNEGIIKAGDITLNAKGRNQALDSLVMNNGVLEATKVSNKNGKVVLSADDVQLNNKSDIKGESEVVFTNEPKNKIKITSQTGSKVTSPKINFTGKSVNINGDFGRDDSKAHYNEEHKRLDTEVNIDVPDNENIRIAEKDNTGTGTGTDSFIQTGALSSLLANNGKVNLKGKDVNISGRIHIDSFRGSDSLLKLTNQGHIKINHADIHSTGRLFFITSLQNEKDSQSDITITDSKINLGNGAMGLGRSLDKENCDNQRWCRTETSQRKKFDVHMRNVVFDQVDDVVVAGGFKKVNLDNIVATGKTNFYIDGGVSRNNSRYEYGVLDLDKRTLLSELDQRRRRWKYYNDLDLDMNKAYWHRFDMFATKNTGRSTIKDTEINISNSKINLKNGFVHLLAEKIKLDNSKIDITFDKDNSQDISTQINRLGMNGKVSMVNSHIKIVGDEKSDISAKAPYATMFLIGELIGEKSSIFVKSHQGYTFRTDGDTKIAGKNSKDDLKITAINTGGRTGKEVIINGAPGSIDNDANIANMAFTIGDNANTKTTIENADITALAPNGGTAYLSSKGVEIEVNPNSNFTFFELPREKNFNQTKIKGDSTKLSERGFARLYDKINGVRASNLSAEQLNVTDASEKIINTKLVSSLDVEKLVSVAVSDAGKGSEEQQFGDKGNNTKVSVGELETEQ
In words: ITC; haemopexin or its fragment (~100 uM) in the syringe, HxuA or mutant (~10 uM) in the cell; 25 °C; 20 mM Na-phosphate pH 7.0; single-site model; apparent Ka; mean of one to three experiments. To be noted: both partners purified. (In general: Isothermal titration calorimetry measures the heat released or taken up as one component is titrated into another.)

Assay [3] deals with T2, HxuA^Asp726Ala, cysteine-less (dm) variant (Haemophilus influenzae, UniProt P44602 22-905, Asp726Ala | Cys855 replaced by serine | Cys861 replaced by serine).
T2 construct: source: E. coli BL21 with a pBAD24 derivative harbouring the hxuCBA operon; purified from the culture supernatant (same protocol as HxuA)
T2 sequence: T1 sequence with D726A
The assay is described as above. The settings on record: both partners purified.

Assay [4] has as its target T3, HxuA^DEL (M loop deletion), cysteine-less (dm) variant (Haemophilus influenzae, UniProt P44602 22-905, additional Pro codon replacing the initial 712-728 sequence | Cys855 replaced …).
T3 construct: source: E. coli BL21 with a pBAD24 derivative harbouring the hxuCBA operon; purified from the culture supernatant (same protocol as HxuA)
T3 sequence: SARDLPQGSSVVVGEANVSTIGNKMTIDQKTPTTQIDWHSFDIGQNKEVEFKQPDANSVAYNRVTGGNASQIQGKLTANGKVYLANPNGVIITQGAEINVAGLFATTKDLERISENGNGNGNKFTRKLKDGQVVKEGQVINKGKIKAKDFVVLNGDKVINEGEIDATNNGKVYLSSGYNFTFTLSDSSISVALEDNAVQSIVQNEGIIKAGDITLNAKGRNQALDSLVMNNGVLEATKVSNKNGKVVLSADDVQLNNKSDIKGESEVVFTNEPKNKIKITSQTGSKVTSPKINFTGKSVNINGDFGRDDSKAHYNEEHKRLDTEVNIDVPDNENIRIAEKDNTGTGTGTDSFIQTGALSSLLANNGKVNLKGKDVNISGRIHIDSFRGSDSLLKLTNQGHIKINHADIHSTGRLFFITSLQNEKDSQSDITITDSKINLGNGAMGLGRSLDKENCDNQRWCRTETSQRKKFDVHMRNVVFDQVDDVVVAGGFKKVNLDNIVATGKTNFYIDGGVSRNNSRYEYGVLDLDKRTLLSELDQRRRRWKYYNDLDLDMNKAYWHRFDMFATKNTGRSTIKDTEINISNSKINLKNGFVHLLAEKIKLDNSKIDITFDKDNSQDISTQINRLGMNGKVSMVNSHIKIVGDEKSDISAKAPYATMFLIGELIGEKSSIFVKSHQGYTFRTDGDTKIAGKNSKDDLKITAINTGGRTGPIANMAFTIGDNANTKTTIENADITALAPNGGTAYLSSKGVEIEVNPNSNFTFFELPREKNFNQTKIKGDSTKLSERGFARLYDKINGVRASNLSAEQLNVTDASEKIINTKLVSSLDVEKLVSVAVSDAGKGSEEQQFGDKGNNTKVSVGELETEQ
The assay is described as above. The settings on record: both partners purified.

In assay [5] the target is T4, HxuA, cysteine-less variant (cysteines 855 and 861 replaced by serines; referred to as HxuA throughout) (Haemophilus influenzae, UniProt P44602 22-905, cysteine at position 855 replaced by serine | cysteine at position 861 replaced …).
T4 construct: HxuA, haem-haemopexin utilisation protein A (TpsA cargo protein) of Haemophilus influenzae, called full-length, 884 residues, Ser1 to Gln884; Measured mass 96,467.6094 (theoretical 96,469.6926); also called HxuAdm; dm variant; source: E. coli BL21, pBAD24 derivative with the hxuCBA operon; purified from the culture supernatant (ammonium sulfate, SEC, monoQ)
T4 sequence: T1 sequence
In words: ITC; haemopexin or its fragments (~100 μM) in the syringe, HxuA (~10 μM) in the cell; 20 mM Na-phosphate pH 7.0, 25 °C; single-site model; apparent Ka. The settings on record: both partners purified.

Assay [6] addresses T5, cysteine-less variant of HxuA^Asp726Ala (Haemophilus influenzae, UniProt P44602 22-905, Asp726Ala | cysteine at position 855 replaced by serine | cysteine at position …).
T5 construct: HxuA of Haemophilus influenzae, as m1 with Asp726Ala; also called dm variant of HxuA^Asp726Ala; source: E. coli, purified from the supernatant (same protocol as HxuA)
T5 sequence: T1 sequence with D726A
The description is as above. The settings on record: both partners purified.

Consider “rabbit haem-haemopexin (from UniProt P20058 26-460) (natural protein)”, for which, in assay [1], the Ka is 1.7e+08 M⁻¹; the dH was -54.4 kJ/mol; the stoichiometry N (commonly the number of molecules, sites or subunits per partner or assembly) turned out to be 1.

B1: rabbit haemopexin (haem-free) (natural protein)
chain: VPLTSAHGNVTEGESGTKPEADVIEQCSDGWSFDATTLDDNGTMLFFKDEFVWKSHRGIRELISERWKNFIGPVDAAFRHGHTSVYLIKGDKVWVYTSEKNEKVYPKSLQDEFPGIPFPLDAAVECHRGECQDEGILFFQGNRKWFWDLTTGTKKERSWPAVGNCTSALRWLGRYYCFQGNQFLRFNPVSGEVPPGYPLDVRDYFLSCPGRGHRSSHRNSTQHGHESTRCDPDLVLSAMVSDNHGATYVFSGSHYWRLDTNRDGWHSWPIAHQWPQGPSTVDAAFSWEDKLYLIQDTKVYVFLTKGGYTLVNGYPKRLEKELGSPPVISLEAVDAAFVCPGSSRLHIMAGRRLWWLDLKSGAQATWTELPWPHEKVDGALCMEKPLGPNSCSTSGPNLYLIHGPNLYCYRHVDKLNAAKNLPQPQRVSRLLGCTH
notes: Glycoprotein from serum; also called Hpx; hemopexin; source: purified from rabbit serum (Biosera)
In the case of B1, the Ka in assay [2], in assay [3] and in assay [4] was over 1e+09 M⁻¹ in each case. Moreover, the figures for the “stoichiometry N” value in assay [2], in assay [3] and in assay [4] were 0.8, 0.68 and 1.07, respectively.

B2: rabbit haemopexin (haem-free) (natural protein)
chain: B1 chain
notes: haemopexin, rabbit, serum glycoprotein, called full-length; two MMP domains (residues 1-208 and 228-435) joined by a linker; Glycoprotein from serum; also called Hpx; full-length haemopexin; source: purified from rabbit serum (Biosera): perchloric acid, PEG 3400, S-sepharose, mono Q, SEC
With B2, the dH in assay [5] is -220 kJ/mol.

B3: rabbit haem-haemopexin (natural protein)
chain: B1 chain
notes: also called He-Hpx; source: purified from rabbit serum (Biosera), haem-loaded
As to B3, in assay [5], the Ka is over 1e+09 M⁻¹ and the dH is -167 kJ/mol. In assay [6], the Ka came out at 2.9e+06 M⁻¹ and the dH is -53.6 kJ/mol.

B4: rabbit haem-haemopexin (natural protein)
chain: B1 chain
modifications: haem bound
notes: Same chain as Dm4, with haem; also called He-Hpx; HeHpx; source: purified from rabbit serum (Biosera), haem-loaded
As to B4, the “stoichiometry N” value in assay [2] amounted to 0.96; in assay [3] it was 1.06; in assay [4], 0.89.

B5: N-terminal domain of rabbit haemopexin (domain or fragment)
chain: VPLTSAHGNVTEGESGTKPEADVIEQCSDGWSFDATTLDDNGTMLFFKDEFVWKSHRGIRELISERWKNFIGPVDAAFRHGHTSVYLIKGDKVWVYTSEKNEKVYPKSLQDEFPGIPFPLDAAVECHRGECQDEGILFFQGNRKWFWDLTTGTKKERSWPAVGNCTSALRWLGRYYCFQGNQFLRFNPVSGEVPPGYPLDVRDYFLSCPGRGHR
notes: haemopexin, rabbit, N-terminal fragment; The results call the domain residues 1-208; the fragment itself ends at Arg214; also called NtHpx; NterHpx; source: trypsin digestion of haemopexin purified from rabbit serum; purified (mono S, SEC)
With B5, in assay [2], the Ka was determined as 7.6e+07 M⁻¹ and the “stoichiometry N” value was determined as 0.88.

B6: N-terminal domain of rabbit haemopexin (domain or fragment)
chain: B5 chain
notes: haemopexin, rabbit, N-terminal tryptic fragment: cleaved in the linker after Arg 214; also called NtHpx; NterHpx; source: trypsin digestion of haemopexin purified from rabbit serum; purified (mono S, SEC)
As for B6, in assay [5], the dH was -203 kJ/mol and the “stoichiometry N” value is about 1.
